We go through one molecule from patent publication US20190241886A1.

In the test the target is CD137 (soluble antigen for staining of yeast) (human) (UniProt Q07011). Nature of the test: flow cytometry of yeast displaying the scFv, stained with human CD137; number printed over the dot plot, y axis CD137 binding (FL2-A PE-A), x axis scFv display.
CD137 (soluble antigen for staining of yeast) (human), sequence (Q07011 24-186 limits assumed): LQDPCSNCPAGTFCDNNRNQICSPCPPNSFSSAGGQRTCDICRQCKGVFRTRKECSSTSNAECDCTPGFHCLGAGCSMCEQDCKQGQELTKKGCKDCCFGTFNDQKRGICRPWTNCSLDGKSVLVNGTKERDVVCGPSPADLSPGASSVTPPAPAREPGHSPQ

B1: scFv of parental CD137 antibody TY21242 displayed on yeast (scFv, part only; not given: linker, Aga2 and tag, V domains shown, not shown: another chain or arm of the molecule; large carriers; small tags and cut ends)
VL: DIQLTQSPSSLSASVGDRVTITCRASQSIGSYLAWYQQKPGKAPKLLIYDASNLETGVPSRFSGSGSGTDFTLTISSLQPEDFATYYCQQGYYLWTFGQGTKVEIK
VH: EVQLVESGGGLVQPGGSLRLSCAASGFSLSTGGVGVGWIRQAPGKGLEWLALIDWADDKYYSPSLKSRLTISRDNSKNTLYLQLNSLRAEDTAVYYCARGGSDTVIGDWFAYWGQGTLVTVSS
Take B1: the Y turned out to be 19200.
